Measured values reported in patent US20180355003A1.

Experiments:
[1] = target: His-tagged IDO1 human recombinant protein (71182, BPS Biosciences) (UniProt P14902); test: ELISA
Human IDO1 = Human IDO1 (UniProt P14902); test: ELISA
Sequence of Human IDO1 (P14902 2-403): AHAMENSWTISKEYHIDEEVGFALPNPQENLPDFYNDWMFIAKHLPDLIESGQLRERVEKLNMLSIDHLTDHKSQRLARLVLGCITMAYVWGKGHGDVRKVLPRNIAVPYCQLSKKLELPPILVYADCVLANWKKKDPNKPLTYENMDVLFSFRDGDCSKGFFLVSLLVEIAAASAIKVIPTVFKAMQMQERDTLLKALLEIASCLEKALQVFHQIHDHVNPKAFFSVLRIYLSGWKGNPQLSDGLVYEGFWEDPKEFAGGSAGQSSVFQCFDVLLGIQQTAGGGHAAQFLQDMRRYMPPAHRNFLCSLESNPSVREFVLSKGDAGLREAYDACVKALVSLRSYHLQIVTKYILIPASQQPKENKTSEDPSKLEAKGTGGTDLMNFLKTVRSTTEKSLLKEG

Sequence of His-tagged IDO1 human recombinant protein (71182, BPS Biosciences) (P14902 2-403): as above

EC50 [1] [µM]	EC50 (Human IDO1) [µM]	Substance
0.104	–	Biotin-PEG3-Cy(nlf(Me-Trp)a)
–	0.096	ww(F-Phe)
–	0.079	w--ray
–	0.113	yray
